Assay results: the RNAGym collection of RNA variant scans (doi:10.7554/elife.80360)

B1: HDV Ribozyme (parent)
chain: GGCCGGCAUGGUCCCAGCCUCCUCGCUGGCGCCGGCUGGGCAACAUUCCGAGGGGACCGUCCCCUCGGUAAUGGCGAAUGGGACCCA

Variants of: B1
Assay: self-cleavage, relative activity (ratio to wild type); higher = more cleavage; co-transcriptional

Variant | self-cleavage
U12C A16C | 0.302
U12C A16U | 1.05
G11C C61G | 0.217
G11C C61U | 0.157
G11C C61A | 0.185
G11A C62G | 0.437
G11C C13A | 0.142
G11C A87U | 0.453
G11A A16U | 0.723
G10U C57G | 0.587
U12A | 0.309
U12C | 0.399
G11C A45G | 0.249
U12A G74U | 0.101
G11U A87G | 0.404
U12A U65G | 0
G11U C85U | 0.767
G10U C58G | 0.793
G10U U47G | 0.63
G11U A71C | 0.405
G11A G53C | 0.372
U12A C57A | 0.256
U12A C57U | 0.246
G10U A77C | 0.0396

Variant | self-cleavage
G11C U69C | 0.317
G11C U69G | 0.516
G10U C33A | 0.113
G10U C33U | 0.466
G11U U47A | 0.397
U12A C21A | 0.0678
G11U G39C | 0
G11C C14U | 0.285
G11A A51C | 0.665
G10C U27C | 0.942
U12A G81A | 0.0554
G11C C84G | 0.831
G10U G29U | 0.0475
G11C G68A | 0.295
U12A G68U | 0.312
U12A G68A | 0.155
U12C A83C | 0.166
U12C A83G | 0.85
U12A A51G | 0.196
G11A C30U | 0.0645
G11A U72G | 0.0923
G11A C13U | 0.0297
G11A C13G | 0.032
G11A A78C | 0.127

Variant | self-cleavage
G11A A78U | 0.111
G11U C33A | 0.0604
G10U C85U | 0.946
G10U U20C | 0
U12A C18G | 0.0405
G11A A43G | 0.0791
U12A C32A | 0.131
U12A C32G | 0.225
G10U C66A | 0.895
G11U C64G | 0.465
G11U U46C | 0.135
U12C A42C | 0.0489
G10U C86A | 0.712
G10U G38U | 0.0625
G11U C32G | 0.0767
G11C A77C | 0.128
G11C C66A | 0.285
G11C C66G | 0.383
U12A C19U | 0.0831
G10U U72A | 0.277
G10U A45U | 0.506
G11C A51G | 0.297
U12A C48G | 0.415
G11C A16G | 0.277

Variant | self-cleavage
G10C G82U | 0.348
G11A C33U | 0.271
U12A C63U | 0.453
U12A C63A | 0.519
G11U G67A | 0.0875
G11C A70G | 0.0692
G11C A70C | 0.32
G11A G74C | 0.0723
G11A G52A | 0.38
G10U G39U | 0.346
G10U G39A | 0.199
G11U U65A | 0.321
G10U G74C | 0.138
G11C C48A | 0.277
G11C C22A | 0.0898
G11C C22U | 0.0817
G10U G54C | 0.831
U12A C24A | 0.104
G11C C30G | 0
G11C C30U | 0.0604
G10U A56C | 0.878
G10C U72A | 0.415
G10C U72G | 0.369
G11U G76U | 0.596

Variant | self-cleavage
G11A G54C | 0.479
G11A G54A | 0.371
G11A G54U | 0.391
G11A A77G | 0.208
G11A A77C | 0.0898
G11A G76C | 0.796
G11C G31A | 0.0804
G11A C32U | 0.133
G11A C32G | 0.0683
U12A G34A | 0.0378
G10U C75U | 0.0678
G11A G29C | 0.123
G11A G67A | 0.0841
U12C C30U | 0.156
U12C C30A | 0.193
G11C C75U | 0.185
U12A C44U | 0
U12A C44A | 0
G11C C86A | 0.489
G11A U37A | 0.0567
G11A U37C | 0.381
G11C G28U | 0.0268
G11C G28C | 0
G11A G50C | 0.439

Variant | self-cleavage
G11A G50U | 0.283
G11A G50A | 0.366
G11C A71G | 0.277
G10U C26A | 0.678
G11C C49U | 0.332
U12A G29C | 0.0386
G10U G17C | 0.359
U12A C49A | 0.128
G11U U20G | 0.0791
G11A C48A | 0.506
G11A C48G | 0.288
U12C A77G | 0.302
U12C A77U | 0.289
G11A C85G | 0.678
G11A G40U | 0.458
G11A G40A | 0.582
G11U G81U | 0.138
G10U U69A | 0.813
G11C U65C | 0.297
G10U G50U | 0.796
G11A A56C | 0.298
G11A C14U | 0.277
G11A C14A | 0.148
G11A G38U | 0

Variant | self-cleavage
U12A C66G | 0.375
G11U C48A | 0.423
G11C G81U | 0.225
G10U U46A | 0.489
G11A C49A | 0.363
G11A C49U | 0.386
G11C C32G | 0.0875
G11C C32U | 0.192
G11C C36G | 0.148
G11C C36U | 0.136
G11A G25A | 0.0755
U12A U37G | 0.0536
U12A G80U | 0.0968
G11U C86G | 0.199
G11U C86U | 0.415
G11U C86A | 0.489
G10U C32U | 0.546
G11C G73U | 0.16
G11C G73A | 0.0936
G11U G50C | 0.359
G11U G38A | 0.0135
U12A U23A | 0.192
G11C C63U | 0.264
